The text below walks through data of the supplement of paper PMC7877785.

This data set can be described thus: self-splicing fitness, log relative to wild type (ln ratio); higher = more splicing; Tetrahymena group I intron in knt gene, E. coli kanamycin selection, DiMSum; sequences stand for … in CUCUCU…GGAGGGAAAAGUUAUCAGGCAUGCACCUGGUAGCUAGUCUUUAAACCAAUAGAUUGCAUCGGUUUAAAAGGCAAGACCGUCAAAUUGCGGGAAAGGGGUCAACAGCCGUUCAGUACCAAGUCUCAGGGGAAACUUUGAGAUGGCCUUGCAAAGGGUAUGGUAAUAAGCUGACGGACAUGGUCCUAACCACGCAGCCAAGUCCUAAGUCAACAGAUCUUCUGUUGAUAUGGAUGCAGUUCACAGACUAAAUGUCGGUCGGGGAAGAUGUAUUCUUCUCAUAAGAUAUAGUCGGACCUCUCCUUAAUGGGAGCUAGCGGAUGAAGUGAUGCAACACUGGAGCCGCUGGGAACUAAUUUGUAUGCGAAAGUAUAUUGAUUAGUUUUGGAGUACUCGUGGUCG
Put shortly:
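Colonies from six replicate transformations of E. coli BL21(DE3) were pooled and amplicon-sequenced on an Illumina HiSeq 2500. The library placed an intron with all eight P1ex-region nucleotides randomised inside the knt kanamycin-resistance gene on pET-22b(+), and cells grew overnight at 37°C or 30°C on LB agar with or without 25 μg/mL kanamycin (plus 100 μg/mL carbenicillin, 50 μM IPTG, 0.2% rhamnose). Fitness is the DiMSum error-weighted combination of wild-type-normalised replicate fold changes, kanamycin versus none.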

± gives the uncertainty stated by the source.

As to GCCCAGCAAUAUUACGGCUA, the “self-splicing fitness (ln)” value was -1.1 ± 0.095 (30 °C) and -0.549 ± 0.1 (37 °C).

Consider GUAUAGCAAUAUUACGCUGU, for which the “self-splicing fitness (ln)” value is, setting by setting: (30 °C) -2.81 ± 0.26; (37 °C) -2.48 ± 0.3.

For GCCGAGCAAUAUUACGGAAC, the “self-splicing fitness (ln)” value is, setting by setting: (30 °C) -1.82 ± 0.12; (37 °C) -0.538 ± 0.12.

For the sequence AACCAGCAAUAUUACGUCCU, the “self-splicing fitness (ln)” value runs as follows: (30 °C) 0.026 ± 0.043; (37 °C) -0.134 ± 0.053.

As to UGACAGCAAUAUUACGCCAU, the “self-splicing fitness (ln)” value by setting is: (30 °C) -3.25 ± 0.29; (37 °C) -1.51 ± 0.26.

AAACAGCAAUAUUACGUUCA: the “self-splicing fitness (ln)” value by setting is: (30 °C) -0.713 ± 0.045; (37 °C) -0.557 ± 0.063.

As for CUAGAGCAAUAUUACGAUUG, the “self-splicing fitness (ln)” value reads like this: (30 °C) -0.464 ± 0.071; (37 °C) -0.493 ± 0.077.

With CAAAAGCAAUAUUACGAACU, the “self-splicing fitness (ln)” value reads like this: (30 °C) -2.51 ± 0.19; (37 °C) -1.3 ± 0.21.

With AUAGAGCAAUAUUACGAUAC, the “self-splicing fitness (ln)” value by setting is: (30 °C) -0.998 ± 0.12; (37 °C) -0.0688 ± 0.19.

On to GCCUAGCAAUAUUACGUUUA, for which the “self-splicing fitness (ln)” value runs as follows: (30 °C) -2.34 ± 0.18; (37 °C) -1.7 ± 0.14.

Turning to CAACAGCAAUAUUACGGGUG, the “self-splicing fitness (ln)” value was -1.65 ± 0.051 (30 °C) and -0.569 ± 0.057 (37 °C).

As to AUCUAGCAAUAUUACGCAGG, the “self-splicing fitness (ln)” value is, setting by setting: (30 °C) -2.97 ± 0.3; (37 °C) -1.07 ± 0.18.

In the case of UGGUAGCAAUAUUACGAGAG, the “self-splicing fitness (ln)” value is -3.55 ± 0.28 (30 °C) and -2.16 ± 0.21 (37 °C).

Turning to GUACAGCAAUAUUACGUCAA, the “self-splicing fitness (ln)” value is -1.75 ± 0.16 (30 °C) and -2.38 ± 0.21 (37 °C).

CUCAAGCAAUAUUACGAGGC: the “self-splicing fitness (ln)” value was -3.51 ± 0.3 (30 °C) and -2.65 ± 0.27 (37 °C).

In the case of UAAAAGCAAUAUUACGCCCC, the “self-splicing fitness (ln)” value reads like this: (30 °C) -3.1 ± 0.49; (37 °C) 0.13 ± 0.35.

On to GCGAAGCAAUAUUACGUAAC, for which the “self-splicing fitness (ln)” value by setting is: (30 °C) -2.64 ± 0.14; (37 °C) -1.44 ± 0.16.

Consider CUAGAGCAAUAUUACGCUGA, for which the “self-splicing fitness (ln)” value was -3.92 ± 0.23 (30 °C) and -2.25 ± 0.23 (37 °C).

Take GAGAAGCAAUAUUACGUGCU: the “self-splicing fitness (ln)” value by setting is: (30 °C) -2.51 ± 0.21; (37 °C) -0.848 ± 0.17.

As for AUGGAGCAAUAUUACGAAAC, the “self-splicing fitness (ln)” value (30 °C) is -2.72 ± 0.4.

In the case of AUAUAGCAAUAUUACGCAUU, the “self-splicing fitness (ln)” value was -3.04 ± 0.18 (30 °C) and -1.42 ± 0.15 (37 °C).

As to CGUGAGCAAUAUUACGAGAC, the “self-splicing fitness (ln)” value (37 °C) is -0.958 ± 0.35.

Regarding UUGUAGCAAUAUUACGAAGG, the “self-splicing fitness (ln)” value (37 °C) is -1.9 ± 0.47.

Regarding AGGCAGCAAUAUUACGUUAC, the “self-splicing fitness (ln)” value (30 °C) is -3.46 ± 0.2 and the “self-splicing fitness (ln)” value (37 °C) was -2.55 ± 0.31.

Take GGGAAGCAAUAUUACGCGGA: the “self-splicing fitness (ln)” value by setting is: (30 °C) -2.82 ± 0.23; (37 °C) -1.44 ± 0.18.

Consider CAUCAGCAAUAUUACGAGCU, for which the “self-splicing fitness (ln)” value runs as follows: (30 °C) -1.92 ± 0.26; (37 °C) -2.3 ± 0.47.

With GUACAGCAAUAUUACGACUU, the “self-splicing fitness (ln)” value is, setting by setting: (30 °C) -0.754 ± 0.059; (37 °C) -0.179 ± 0.073.

With GGUCAGCAAUAUUACGCUUG, the “self-splicing fitness (ln)” value was -0.955 ± 0.07 (30 °C) and -0.556 ± 0.096 (37 °C).

For the sequence UCGGAGCAAUAUUACGGUCU, where the note is “30 °C”, the “self-splicing fitness (ln)” value was -0.916 ± 0.37.

In the case of GGACAGCAAUAUUACGCCGA, the “self-splicing fitness (ln)” value reads like this: (30 °C) -0.609 ± 0.11; (37 °C) -0.306 ± 0.12.

In the case of AAUUAGCAAUAUUACGGUCC, the “self-splicing fitness (ln)” value (30 °C) was -0.652 ± 0.12 and the “self-splicing fitness (ln)” value (37 °C) stood at 0.122 ± 0.15.

Take UAUUAGCAAUAUUACGACAC: the “self-splicing fitness (ln)” value runs as follows: (30 °C) -1.54 ± 0.14; (37 °C) -1.92 ± 0.21.

As for AACCAGCAAUAUUACGGCCA, the “self-splicing fitness (ln)” value by setting is: (30 °C) -0.365 ± 0.067; (37 °C) -0.114 ± 0.085.

AUUCAGCAAUAUUACGUUCG: the “self-splicing fitness (ln)” value by setting is: (30 °C) -0.646 ± 0.06; (37 °C) -0.898 ± 0.094.
